Reference: paper PMC11379823

Molecular target: T1, human orexin receptor 2 (human) (UniProt O43614)
T1 sequence: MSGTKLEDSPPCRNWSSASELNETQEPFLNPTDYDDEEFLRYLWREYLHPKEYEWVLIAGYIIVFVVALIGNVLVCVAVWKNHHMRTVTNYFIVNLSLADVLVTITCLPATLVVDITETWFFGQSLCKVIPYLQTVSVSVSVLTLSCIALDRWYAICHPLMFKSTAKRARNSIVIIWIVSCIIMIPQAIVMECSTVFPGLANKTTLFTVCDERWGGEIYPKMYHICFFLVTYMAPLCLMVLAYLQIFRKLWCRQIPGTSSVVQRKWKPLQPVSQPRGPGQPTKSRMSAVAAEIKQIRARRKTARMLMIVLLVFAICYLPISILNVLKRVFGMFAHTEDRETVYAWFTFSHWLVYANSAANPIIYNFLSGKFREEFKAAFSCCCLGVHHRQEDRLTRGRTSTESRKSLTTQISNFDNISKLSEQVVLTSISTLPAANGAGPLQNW

orexin-B (from UniProt O43612 70-97) (peptide)
intracellular accumulation of IP1 in hOX2R/CHO-EA cells, EC50: 3.2 nM | intracellular phosphorylation of CREB (Ser133) in hOX2R/CHO-EA cells, EC50: 4.7 nM | β-arrestin recruitment in hOX2R/CHO-EA cells (PathHunter), EC50: 4 nM

QPLPDCCRQKTCSCRLYELLHGAGNHAAGILTL [orexin-A]
intracellular accumulation of IP1 in hOX2R/CHO-EA cells, EC50: 0.84 nM | intracellular phosphorylation of CREB (Ser133) in hOX2R/CHO-EA cells, EC50: 1.8 nM | β-arrestin recruitment in hOX2R/CHO-EA cells (PathHunter), EC50: 3 nM
